Reference: patent US20240108766A1 (Bayer, published 2024)

T1: human LRRC15 extracellular domain with C-terminal His tag (human, UniProt Q8TF66 22-538)
T1 construct: Recombinant, made in HEK293; the entry holds the extracellular domain and the His tag; SPR analyte; also called TPP-1545; hLRRC15 CT-His
T1 sequence: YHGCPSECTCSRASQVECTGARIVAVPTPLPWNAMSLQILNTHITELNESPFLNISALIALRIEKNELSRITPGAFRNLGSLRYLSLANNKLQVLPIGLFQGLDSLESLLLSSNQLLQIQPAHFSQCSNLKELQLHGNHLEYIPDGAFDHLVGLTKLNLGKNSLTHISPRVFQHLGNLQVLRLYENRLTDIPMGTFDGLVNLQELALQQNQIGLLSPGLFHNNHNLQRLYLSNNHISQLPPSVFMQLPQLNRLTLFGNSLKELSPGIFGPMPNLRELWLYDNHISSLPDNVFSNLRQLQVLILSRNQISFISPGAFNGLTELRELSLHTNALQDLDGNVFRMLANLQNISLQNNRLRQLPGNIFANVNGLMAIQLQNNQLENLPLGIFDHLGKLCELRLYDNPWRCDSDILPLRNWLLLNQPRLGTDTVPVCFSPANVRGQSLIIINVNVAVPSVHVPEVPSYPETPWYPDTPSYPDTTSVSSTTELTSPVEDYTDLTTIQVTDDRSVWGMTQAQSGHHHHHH

T2: human LRRC15 expressed on cells (human, UniProt Q8TF66 22-581)
T2 construct: whole, on cells; On HEK293 cells transfected with LRRC15/ZsGreen1 (Retrogenix), on HT29 cells transfected with human LRRC15, and endogenous on Saos-2; also called LRRC15/ZsGreen1 transfected HEK293 cells; HT29-LRRC15
T2 sequence (looked up): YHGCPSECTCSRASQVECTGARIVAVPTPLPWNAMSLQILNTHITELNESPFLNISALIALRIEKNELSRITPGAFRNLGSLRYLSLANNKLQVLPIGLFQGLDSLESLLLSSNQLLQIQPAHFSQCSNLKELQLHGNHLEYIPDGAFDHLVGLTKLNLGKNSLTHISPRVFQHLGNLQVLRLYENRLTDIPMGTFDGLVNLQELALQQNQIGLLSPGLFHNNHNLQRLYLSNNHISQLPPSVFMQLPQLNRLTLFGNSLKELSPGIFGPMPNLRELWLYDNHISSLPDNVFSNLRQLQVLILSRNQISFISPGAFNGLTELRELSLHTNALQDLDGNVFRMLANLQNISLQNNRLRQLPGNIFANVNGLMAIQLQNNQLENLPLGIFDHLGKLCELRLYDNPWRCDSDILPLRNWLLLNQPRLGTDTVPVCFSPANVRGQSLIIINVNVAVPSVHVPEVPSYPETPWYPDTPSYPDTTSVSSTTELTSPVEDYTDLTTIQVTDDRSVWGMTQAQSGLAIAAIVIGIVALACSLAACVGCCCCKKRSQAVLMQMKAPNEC

T3: cynomolgus (Macaca fascicularis) LRRC15 extracellular domain with C-terminal His tag (cynomolgus monkey (Macaca fascicularis), UniProt Q8TF66 22-538 (human entry))
T3 construct: Recombinant, made in HEK293; the entry holds the extracellular domain and the His tag; SPR analyte; also called TPP-9046
T3 chain: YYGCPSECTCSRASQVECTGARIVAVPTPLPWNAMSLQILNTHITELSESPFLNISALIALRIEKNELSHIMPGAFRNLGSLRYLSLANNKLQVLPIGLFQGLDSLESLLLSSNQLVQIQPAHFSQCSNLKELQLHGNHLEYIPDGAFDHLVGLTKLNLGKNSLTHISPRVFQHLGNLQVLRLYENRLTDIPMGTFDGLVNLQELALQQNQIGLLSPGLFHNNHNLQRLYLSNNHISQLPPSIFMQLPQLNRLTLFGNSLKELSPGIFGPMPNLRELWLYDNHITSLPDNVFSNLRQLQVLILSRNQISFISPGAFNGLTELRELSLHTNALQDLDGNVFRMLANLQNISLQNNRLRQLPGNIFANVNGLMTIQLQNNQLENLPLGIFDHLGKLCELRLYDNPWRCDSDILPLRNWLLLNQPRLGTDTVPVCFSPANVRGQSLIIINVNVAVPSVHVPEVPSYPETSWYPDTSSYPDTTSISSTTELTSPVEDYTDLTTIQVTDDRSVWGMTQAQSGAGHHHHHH


Experiments:
[1] = molecular target: T1, human LRRC15 extracellular domain with …; assay: SPR at 10-37°C (Example 3)
Description: (§1) To assess if anti-LRRC-15 antibodies show a difference in binding at different temperatures, binding assays were conducted using surface plasmon resonance (SPR). Binding assays were performed on a Biacore T200 instrument at temperatures of 10° C., 20° C., 25° C. and 37° C. with assay buffer HBS EP+, 1 mg/ml BSA (bovine serum albumine), 300 mM NaCl, 0.05% NaN₃. Antibodies were captured via anti-human Fc IgGs covalently amine coupled to a CM5 sensor chip and human LRRC15 was used as an analyte in a concentration series from 1.56-200 nM in multi cycle kinetics mode. Pre-experiments were conducted to have an equal capture level at each temperature. Obtained sensorgrams were fitted to a 1:1 Langmuir binding model to derive kinetic data.

[2] = molecular target: T2, human LRRC15 expressed on cells; assay: flow cytometry, transfected HEK293, 0.02 µg/ml
[3] = molecular target: T2, human LRRC15 expressed on cells; assay: flow cytometry, transfected HEK293, 12.5 µg/ml
[4] = molecular target: T1, human LRRC15 extracellular domain with …; assay: SPR Biacore T200, antibody captured, LRRC15 analyte, 10°C
Description: as §1

[5] = molecular target: T1, human LRRC15 extracellular domain with …; assay: SPR (Example 6), overview table, repeats Table 9; head prints [M^-1]
Description: (§2) To assess the binding kinetics and affinity of anti-LRRC15 antibodies as well as their species cross-reactivity profile, binding assays were conducted using surface plasmon resonance (SPR). Binding assays were performed on a Biacore T200 instrument at 25° C. using assay buffer HBS EP+, 1 mg/ml BSA, 300 mM NaCl, 0.05% NaN3. Antibodies were captured via anti-human Fc IgGs covalently amine coupled to a CM5 sensor chip and human, mouse and cynomolgus LRRC15 were used as analytes in a concentration series from 1.56-200 nM in multi cycle kinetics mode. […] Obtained sensorgrams were fitted to a 1:1 Langmuir binding model to derive kinetic data.

[6] = molecular target: T3, cynomolgus (Macaca fascicularis) LRRC15 …; assay: as above
Description: as §2

[7] = molecular target: T1, human LRRC15 extracellular domain with …; assay: SPR Biacore T200, antibody captured, LRRC15 analyte, 20°C
Description: as §1

Binder	Temperature dependent loss in binding affinity [1]	Median Fluorescence AF647 [2]	Median Fluorescence AF647 [3]	Kd [4]	Kd [5]	Kd [6]	Kd [7]
TPP-12942 (antibody, human IgG1, kappa, V domains shown, Prior art humanized IgG1 kappa antibody, used as comparator; also called huM25; huM25-hIgG1Kappa) VH: EVQLVQSGAEVKKPGASVKVSCKASGYKFSSYWIEWVKQAPGQGLEWIGEILPGSDTTNYNEKFKDRATFTSDTSINTAYMELSRLRSDDTAVYYCARDRGNYRAWFGYWGQGTLVTVSS VL: DIQMTQSPSSLSASVGDRVTITCRASQDISNYLNWYQQKPGGAVKFLIYYTSRLHSGVPSRFSGSGSGTDYTLTISSLQPEDFATYFCQQGEALPWTFGGGTKVEIKR	13.8 fold	63400	726000	5.2 nM	25 nM	36 nM	
TPP-17078 (antibody, human IgG1, kappa, V domains shown, also called 438H-M308-H05-hIgGkappa) VH: EVQLVQSGAEVKKPGASVKVSCKASGYKFSSYWIEWVKQAPGQGLEWIGEILPGSDTTNYNEKFKDRATFTSDTSINTAYMELSRLRSDDTAVYYCARDRGNYRAWFGYWGQGTLVTVSS VL: DIQMTQSPSSLSASVGDRVTITCRASQSISSYLNWYQQKPGGAPKFLIYYASSLQSGVPSRFSGSGSGTDYTLTISSLQPEDFATYYCQQGFSLPWTFGGGTKVEIKR	30.9 fold	83700	707000	0.32 nM	1.7 nM	1.8 nM	0.88 nM
TPP-17421 (antibody, human IgG1, kappa, V domains shown, also called 438H-M306-C11-hIgG1Kappa) VH: EVQLVQSGAEVKKPGASVKVSCKASGYKFSSYWIEWVKQAPGQGLEWIGEILPGSDWTNYNEKFKDRATFTSDTSINTAYMELSRLRSDDTAVYYCARDRGNYRAWFQYWGQGTLVTVSS VL: DIQMTQSPSSLSASVGDRVTITCRASQSISSYLNWYQQKPGGAPKFLIYYASSLQSGVPSRFSGSGSGTDYTLTISSLQPEDFATYYCQQGLELPWTFGGGTKVEIKR	5.2 fold	35200	736000	0.46 nM	0.96 nM	0.91 nM	0.82 nM
TPP-14389 (antibody, human IgG1, kappa, V domains shown, also called 13612-rec02-hIgG1Kappa) VH: EVQLLESGGGLVQPGGSLRLSCAASGFTFSGYMMSWVRQAPGKGLEWVSGIYPSPGYTYYADSVKGRFTISRDNSKNTLYLQMNSLRAEDTAVYYCAREKASDLFGSYSEALDYWGQGTLVTVSS VL: DIQMTQSPDSLSASVGDRVTITCRASQDVGSWLAWYQQKPGKAPKLLIFAASSLESGIPSRFSGSGSGTDFTLTISSLQPEDFATYYCQQANGFPLTFGGGTKVEIKR	108 fold			0.61 nM	5.9 nM	9 nM	2 nM
